According to the supplement of paper PMC12855868:

B1: library; numbered along this chain (parent)
chain: MAAAGGARLLRAASAVLGGPAGRWLHHAGSRAGSSGLLRNRGPGGSAEASRSLSVSARARSSSEDKITVHFINRDGETLTTKGKVGDSLLDVVVENNLDIDGFGACEGTLACSTCHLIFEDHIYEKLDAITDEENDMLDLAYGLTDRSRLGCQICLTKSMDNMTVRVPETVADARQSIDVGKTS

Variants of: B1
Assay: scaled log2 fold change in cell abundance, elesclomol vs control (0 = silent mean, 1 = nonsense mean) (scaled log2 ratio); higher = higher viability under elesclomol (loss of FDX1 cuproptosis function)
Details: glucose 10 mM
[1] = with ABC1 FDX1 KO, elesclomol 5 nM, 14 days
[2] = with HEK293T FDX1 KO, elesclomol 40 nM, 11 days
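Further: variant abundance is its share of total variant reads in each endpoint sample, from next-generation sequencing of the integrated ORF PCR-amplified out of genomic DNA.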

Variant | scaled log2 fold change [1] | scaled log2 fold change [2]
MAAAGGARLLRAASAVLGGPAGRWLHHAGSRAGSSGLLRNRGPGGSAEASRSLSVSARARSSSEDKITVHFINRDGETLTTKGKVGDSLLDVVVENNLDIDGFGACEGTLACSTCHLIFEDHIYEKLDAITDEENDMLDLCYGLTDRSRLGCQICLTKSMDNMTVRVPETVADARQSIDVGKTS [A141C] | 0.249 | -1.33
MAAAGGARLLRAASAVLGGPAGRWLHHAGSRAGSSGLLRNRGPGGSAEASRSLSVSARARSSSEDKITVHFINRDGETLTTKGKVGDSLLDVVVENNLDIDGFGACEGTLACSTCHLIFEDHIYEKLDAITDEENDMLDLDYGLTDRSRLGCQICLTKSMDNMTVRVPETVADARQSIDVGKTS [A141D] | 0.178 | -0.445
MAAAGGARLLRAASAVLGGPAGRWLHHAGSRAGSSGLLRNRGPGGSAEASRSLSVSARARSSSEDKITVHFINRDGETLTTKGKVGDSLLDVVVENNLDIDGFGACEGTLACSTCHLIFEDHIYEKLDAITDEENDMLDLFYGLTDRSRLGCQICLTKSMDNMTVRVPETVADARQSIDVGKTS [A141F] | -0.22 | 1.03
MAAAGGARLLRAASAVLGGPAGRWLHHAGSRAGSSGLLRNRGPGGSAEASRSLSVSARARSSSEDKITVHFINRDGETLTTKGKVGDSLLDVVVENNLDIDGFGACEGTLACSTCHLIFEDHIYEKLDAITDEENDMLDLEYGLTDRSRLGCQICLTKSMDNMTVRVPETVADARQSIDVGKTS [A141E] | 0.304 | -0.297
MAAAGGARLLRAASAVLGGPAGRWLHHAGSRAGSSGLLRNRGPGGSAEASRSLSVSARARSSSEDKITVHFINRDGETLTTKGKVGDSLLDVVVENNLDIDGFGACEGTLACSTCHLIFEDHIYEKLDAITDEENDMLDSAYGLTDRSRLGCQICLTKSMDNMTVRVPETVADARQSIDVGKTS [L140S] | -0.172 | 
MAAAGGARLLRAASAVLGGPAGRWLHHAGSRAGSSGLLRNRGPGGSAEASRSLSVSARARSSSEDKITVHFINRDGETLTTKGKVGDSLLDVVVENNLDIDGFGACEGTLACSTCHLIFEDHIYEKLDAITDEENDMLDVAYGLTDRSRLGCQICLTKSMDNMTVRVPETVADARQSIDVGKTS [L140V] | -0.00688 | 0.753
MAAAGGARLLRAASAVLGGPAGRWLHHAGSRAGSSGLLRNRGPGGSAEASRSLSVSARARSSSEDKITVHFINRDGETLTTKGKVGDSLLDVVVENNLDIDGFGACEGTLACSTCHLIFEDHIYEKLDAITDEENDMLDKAYGLTDRSRLGCQICLTKSMDNMTVRVPETVADARQSIDVGKTS [L140K] | -0.153 | -0.169
MAAAGGARLLRAASAVLGGPAGRWLHHAGSRAGSSGLLRNRGPGGSAEASRSLSVSARARSSSEDKITVHFINRDGETLTTKGKVGDSLLDVVVENNLDIDGFGACEGTLACSTCHLIFEDHIYEKLDAITDEENDMLDWAYGLTDRSRLGCQICLTKSMDNMTVRVPETVADARQSIDVGKTS [L140W] | -0.629 | 0.639
MAAAGGARLLRAASAVLGGPAGRWLHHAGSRAGSSGLLRNRGPGGSAEASRSLSVSARARSSSEDKITVHFINRDGETLTTKGKVGDSLLDVVVENNLDIDGFGACEGTLACSTCHLIFEDHIYEKLDAITDEENDMLDHAYGLTDRSRLGCQICLTKSMDNMTVRVPETVADARQSIDVGKTS [L140H] | -1.29 | 0.795
MAAAGGARLLRAASAVLGGPAGRWLHHAGSRAGSSGLLRNRGPGGSAEASRSLSVSARARSSSEDKITVHFINRDGETLTTKGKVGDSLLDVVVENNLDIDGFGACEGTLACSTCHLIFEDHIYEKLDAITDEENDMLDTAYGLTDRSRLGCQICLTKSMDNMTVRVPETVADARQSIDVGKTS [L140T] | -0.682 | -0.194
MAAAGGARLLRAASAVLGGPAGRWLHHAGSRAGSSGLLRNRGPGGSAEASRSLSVSARARSSSEDKITVHFINRDGETLTTKGKVGDSLLDVVVENNLDIDGFGACEGTLACSTCHLIFEDHIYEKLDAITDEENDMLDRAYGLTDRSRLGCQICLTKSMDNMTVRVPETVADARQSIDVGKTS [L140R] | -0.341 | -0.397
MAAAGGARLLRAASAVLGGPAGRWLHHAGSRAGSSGLLRNRGPGGSAEASRSLSVSARARSSSEDKITVHFINRDGETLTTKGKVGDSLLDVVVENNLDIDGFGACEGTLACSTCHLIFEDHIYEKLDAITDEENDMLDNAYGLTDRSRLGCQICLTKSMDNMTVRVPETVADARQSIDVGKTS [L140N] | 0.179 | 
MAAAGGARLLRAASAVLGGPAGRWLHHAGSRAGSSGLLRNRGPGGSAEASRSLSVSARARSSSEDKITVHFINRDGETLTTKGKVGDSLLDVVVENNLDIDGFGACEGTLACSTCHLIFEDHIYEKLDAITDEENDMLDPAYGLTDRSRLGCQICLTKSMDNMTVRVPETVADARQSIDVGKTS [L140P] | 0.264 | 0.879
MAAAGGARLLRAASAVLGGPAGRWLHHAGSRAGSSGLLRNRGPGGSAEASRSLSVSARARSSSEDKITVHFINRDGETLTTKGKVGDSLLDVVVENNLDIDGFGACEGTLACSTCHLIFEDHIYEKLDAITDEENDMLDYAYGLTDRSRLGCQICLTKSMDNMTVRVPETVADARQSIDVGKTS [L140Y] | -0.351 | -0.373
MAAAGGARLLRAASAVLGGPAGRWLHHAGSRAGSSGLLRNRGPGGSAEASRSLSVSARARSSSEDKITVHFINRDGETLTTKGKVGDSLLDVVVENNLDIDGFGACEGTLACSTCHLIFEDHIYEKLDAITDEENDMLDIAYGLTDRSRLGCQICLTKSMDNMTVRVPETVADARQSIDVGKTS [L140I] | -0.0613 | 0.225
MAAAGGARLLRAASAVLGGPAGRWLHHAGSRAGSSGLLRNRGPGGSAEASRSLSVSARARSSSEDKITVHFINRDGETLTTKGKVGDSLLDVVVENNLDIDGFGACEGTLACSTCHLIFEDHIYEKLDAITDEENDMLDQAYGLTDRSRLGCQICLTKSMDNMTVRVPETVADARQSIDVGKTS [L140Q] | 0.178 | -1.41
MAAAGGARLLRAASAVLGGPAGRWLHHAGSRAGSSGLLRNRGPGGSAEASRSLSVSARARSSSEDKITVHFINRDGETLTTKGKVGDSLLDVVVENNLDIDGFGACEGTLACSTCHLIFEDHIYEKLDAITDEENDMLDMAYGLTDRSRLGCQICLTKSMDNMTVRVPETVADARQSIDVGKTS [L140M] | 0.393 | 0.793
